{"source": "paper PMC5787919", "about": "“A feedback regulatory model for RifQ-mediated repression of rifamycin export in Amycolatopsis mediterranei” (Microbial Cell Factories, 2018)", "biological_target": "the molecule itself", "experiment": "SEC; gel filtration on Superdex 75, calibrated with the Low Molecular Weight kit (aprotinin 6.5 KD, ribonuclease A 14 KD, ovalbumin 44 KD; Blue Dextran 2000 for the void); molecular weight calculated from the retention time", "data": [{"protein": "RifQ, TetR-family transcriptional regulator of Amycolatopsis mediterranei S699 (natural protein, UniProt O52558 1-242, looked up, RifQ, TetR-family regulator encoded in the rifamycin biosynthetic (rif) cluster of Amycolatopsis mediterranei S699; Cloning between NdeI and XhoI of pET22b would usually give a C-terminal His6 tag (surmised); also called His-tagged RifQ; recombinant RifQ; source: E. coli BL21(DE3), pET22b-RifQ, purified (Ni-NTA gravity column)) MGKRASQPRESVWLSPRPARKHRAGESELDREKIVATAVRVLDAEGDAKFSMRLLAEELNVTPMSVYWYVANKDDLLELALDAVAGEIELPSLDDGNDWREDLRALARAWRRTMVAHPWAIRCYGEYLNIGPSSLRFTECAQAVMACSPLPLKDRSAALNVVFQYVYGFTATESRWLEHLAETGRTAEEFAAEVTGSMAAMSSTLEQGGLLERDGDQSMEQLRDRDFDRGLNWLFTGMVAGG", "values": [{"measurement": "stoichiometry N", "value": 2}]}]}
